The record followed here is doi:10.1101/2025.11.23.690026, “A systematic interactome of SET1C expands its functional landscape and identifies candidate regulatory connections” (bioRxiv, 2025).

For the experiment, the target named is T1, reconstituted SET1C (S. cerevisiae, UniProt P38827 1-1080; P39706 1-426; P36104 1-329; P38123 1-315; P43132 1-505; Q03323 …).
T1 construct: Set1, S. cerevisiae (FLAG-Set1); Swd1, untagged subunit; Swd2, untagged subunit; Swd3, untagged subunit; Bre2, untagged subunit; Sdc1, untagged subunit; Spp1, untagged subunit; Shg1, untagged subunit; also called full-length SET1C; purified SET1C; source: Sf9, coinfected with baculoviruses, purified (M2 agarose); copies: + + + + + + +
Briefly: pull-down; GST-tagged Snf2 fragments (250 nM) with SET1C or C762SET1C (25 nM) on glutathione-Sepharose 4B, 0.2 mg/ml BSA, 20 mM Tris-Cl pH 7.9, 150 mM NaCl, 0.1% NP-40, 4 C, 3 hours; immunoblot. To be noted: both partners purified. On the technique in general: A western blot detects proteins with antibodies after separation by electrophoresis.

B1: GST-Snf2C-AT-hook (domain or fragment, S. cerevisiae, UniProt P22082 1384-1547, looked up)
chain: ARKQRTKKEDKSEAIDGNGEIKGENIDADNDGPRINNISAEDRADTDLAMNDDDFLSKKRKAGRPRGRPKKVKLEGSENSEPPALESSPVTGDNSPSEDFMDIPKPRTAGKTSVKSARTSTRGRGRGRGRGRGRGRGRGRPPKARNGLDYVRTPAAATSPIDIR
notes: Snf2, S. cerevisiae, AT-hook region 1384-1547; also called Snf2-AT-hook; GST-Snf2-AT-hook; source: recombinant, purified GST fusion (E. coli BL21 by the general methods)
B1: the binding result is given as “binds”.
